# Patent US20160264649A1
# Key:
# Experiment in all cases: cell-based or functional assay
# [1] = biological target: HIV-1 MGRM-Chronic-B-001 Env on pseudovirus (HIV-1)
# [2] = biological target: HIV-1 MGRM-F1-014 Env (HIV-1)
# [3] = biological target: HIV-1 MGRM-G-004 Env (HIV-1)
# [4] = biological target: HIV-1 LAVI_C3 Env on pseudovirus (HIV-1)
# [5] = biological target: HIV-1 APV_17 Env on pseudovirus (HIV-1)
# [6] = biological target: HIV-1 MGRM-AE-004 Env (HIV-1)
# [7] = biological target: HIV-1 92BR020 Env on pseudovirus (HIV-1)
# [8] = biological target: HIV-1 VLGCB3 Env on pseudovirus (HIV-1)
# [9] = biological target: HIV-1 6535.3 (Acute) Env on pseudovirus (HIV-1)
# [10] = biological target: HIV-1 MGRM-F1-008 Env (HIV-1)
# [11] = biological target: HIV-1 MGRM-AE-008 Env (HIV-1)
# [12] = biological target: HIV-1 LAVIC_18 Env on pseudovirus (HIV-1)
# [13] = biological target: HIV-1 NL43 Env on pseudovirus (HIV-1)
# [14] = biological target: HIV-1 MGRM-C-002 Env on pseudovirus (HIV-1)
# [15] = biological target: HIV-1 MGRM-C-014 Env on pseudovirus (HIV-1)
# [16] = biological target: HIV-1 MGRM-D-021 Env (HIV-1)
# [17] = biological target: HIV-1 MGRM-AG-003 Env (HIV-1)
# [18] = biological target: HIV-1 98CN006 Env on pseudovirus (HIV-1)
# [19] = biological target: HIV-1 MGRM-F1-020 Env (HIV-1)
# [20] = biological target: HIV-1 92TH021 Env (HIV-1)
# [21] = biological target: HIV-1 MGRM-Chronic-B-003 Env on pseudovirus (HIV-1)
# [22] = biological target: aMLV envelope
# [23] = biological target: HIV-1 MGRM-D-026 Env (HIV-1)
# [24] = biological target: HIV-1 MGRM-C-017 Env on pseudovirus (HIV-1)
# [25] = biological target: HIV-1 MGRM-G-024 Env (HIV-1)
# [26] = biological target: HIV-1 MGRM-AG-002 Env (HIV-1)
# [27] = biological target: HIV-1 MGRM-C-022 Env on pseudovirus (HIV-1)
# [28] = biological target: HIV-1 MGRM-Chronic-B-010 Env on pseudovirus (HIV-1)
# [29] = biological target: HIV-1 98CN009 Env on pseudovirus (HIV-1)
# [30] = biological target: HIV-1 MGRM-D-022 Env (HIV-1)
# [31] = biological target: HIV-1 MGRM-F1-022 Env (HIV-1)
# [32] = biological target: HIV-1 MGRM-D-005 Env (HIV-1)
# [33] = biological target: HIV-1 MGRM-C-005 Env on pseudovirus (HIV-1)
# [34] = biological target: HIV-1 MGRM-C-012 Env on pseudovirus (HIV-1)
# [35] = biological target: HIV-1 MGRM-C-001 Env on pseudovirus (HIV-1)
# [36] = biological target: HIV-1 MGRM-F1-010 Env (HIV-1)
# [37] = biological target: HIV-1 MGRM-AG-008 Env (HIV-1)
# [38] = biological target: HIV-1 MGRM-C-024 Env on pseudovirus (HIV-1)
# [39] = biological target: HIV-1 94UG103 Env (HIV-1)
# [40] = biological target: HIV-1 MGRM-G-019 Env (HIV-1)
# [41] = biological target: HIV-1 MGRM-AG-001 Env (HIV-1)
# [42] = biological target: HIV-1 MGRM-F1-012 Env (HIV-1)
# [43] = biological target: HIV-1 MGRM-C-013 Env on pseudovirus (HIV-1)
# [44] = biological target: HIV-1 MGRM-D-014 Env (HIV-1)
# [45] = biological target: HIV-1 IAVI-C18 Env (HIV-1)
# [46] = biological target: HIV-1 PVO.4 (Acute) Env on pseudovirus (HIV-1)
# [47] = biological target: HIV-1 CMU02 Env (HIV-1)
# [48] = biological target: HIV-1 TRO.11 (Acute) Env on pseudovirus (HIV-1)
# [49] = biological target: HIV-1 MGRM-AE-001 Env (HIV-1)
# [50] = biological target: HIV-1 IAVI-C22 Env (HIV-1)
# [51] = biological target: HIV-1 MGRM-AG-006 Env (HIV-1)
substance,measurement,setting,value
4E10 (antibody),IC50,[1],1.46 µg/mL
same,IC50 (pseudovirus neutralization),[2],7.36 µg/mL
same,"IC50 (µg/ml), pseudovirus neutralization",[3],1.47 µg/mL
same,IC50,[4],2.85 µg/mL
same,IC50,[5],10.5 µg/mL
same,"IC50 (µg/ml), pseudovirus neutralization",[6],1.27 µg/mL
same,IC50,[7],> 50 µg/mL
same,IC50,[8],5.76 µg/mL
same,IC50,[9],1.23 µg/mL
same,IC50 (pseudovirus neutralization),[10],2.75 µg/mL
same,"IC50 (µg/ml), pseudovirus neutralization",[11],0.94 µg/mL
same,IC50,[12],> 50 µg/mL
same,IC50,[13],4.67 µg/mL
same,IC50,[14],18.2 µg/mL
same,IC50,[15],2.48 µg/mL
same,"IC50 (µg/ml), pseudovirus neutralization",[16],13.3 µg/mL
same,"IC50 (µg/ml), pseudovirus neutralization",[17],0.64 µg/mL
same,IC50,[18],1.91 µg/mL
same,IC50 (pseudovirus neutralization),[19],0.66 µg/mL
same,"IC50 (µg/ml), pseudovirus neutralization",[20],1.17 µg/mL
same,neutralization IC50,[20],1.9 µg/mL
same,neutralization IC90,[20],23.5 µg/mL
same,IC50,[21],3.5 µg/mL
same,neutralization IC50,[22],> 50 µg/mL
same,neutralization IC90,[22],> 50 µg/mL
same,"IC50 (µg/ml), pseudovirus neutralization",[23],2.95 µg/mL
same,IC50,[24],1.47 µg/mL
same,"IC50 (µg/ml), pseudovirus neutralization",[25],1.57 µg/mL
same,"IC50 (µg/ml), pseudovirus neutralization",[26],0.8 µg/mL
same,IC50,[27],5.71 µg/mL
same,IC50,[28],1.69 µg/mL
same,IC50,[29],2.46 µg/mL
same,"IC50 (µg/ml), pseudovirus neutralization",[30],16.9 µg/mL
same,IC50 (pseudovirus neutralization),[31],1.01 µg/mL
same,"IC50 (µg/ml), pseudovirus neutralization",[32],35.2 µg/mL
same,IC50,[33],16.4 µg/mL
same,IC50,[34],0.44 µg/mL
same,IC50,[35],5.66 µg/mL
same,IC50 (pseudovirus neutralization),[36],3.69 µg/mL
same,"IC50 (µg/ml), pseudovirus neutralization",[37],1.48 µg/mL
same,IC50,[38],22.6 µg/mL
same,neutralization IC50,[39],9.7 µg/mL
same,neutralization IC90,[39],> 50 µg/mL
same,"IC50 (µg/ml), pseudovirus neutralization",[40],6.53 µg/mL
same,"IC50 (µg/ml), pseudovirus neutralization",[41],1.12 µg/mL
same,IC50 (pseudovirus neutralization),[42],0.37 µg/mL
same,IC50,[43],2.1 µg/mL
same,"IC50 (µg/ml), pseudovirus neutralization",[44],3.24 µg/mL
same,neutralization IC50,[45],> 50 µg/mL
same,neutralization IC90,[45],> 50 µg/mL
same,IC50,[46],18.3 µg/mL
same,"IC50 (µg/ml), pseudovirus neutralization",[47],0.72 µg/mL
same,neutralization IC50,[47],0.59 µg/mL
same,neutralization IC90,[47],13.4 µg/mL
same,IC50,[48],1.39 µg/mL
same,"IC50 (µg/ml), pseudovirus neutralization",[49],0.85 µg/mL
same,neutralization IC50,[50],1.02 µg/mL
same,neutralization IC90,[50],16.4 µg/mL
same,"IC50 (µg/ml), pseudovirus neutralization",[51],1.76 µg/mL
2G12 (antibody),IC50,[1],0.08 µg/mL
same,IC50 (pseudovirus neutralization),[2],> 50 µg/mL
same,"IC50 (µg/ml), pseudovirus neutralization",[3],> 50 µg/mL
same,IC50,[4],> 50 µg/mL
same,IC50,[5],> 50 µg/mL
same,"IC50 (µg/ml), pseudovirus neutralization",[6],> 50 µg/mL
same,IC50,[7],4.84 µg/mL
same,IC50,[8],7.9 µg/mL
same,IC50,[9],3.85 µg/mL
same,IC50 (pseudovirus neutralization),[10],> 50 µg/mL
same,"IC50 (µg/ml), pseudovirus neutralization",[11],> 50 µg/mL
same,IC50,[12],> 50 µg/mL
same,IC50,[13],0.49 µg/mL
same,IC50,[14],> 50 µg/mL
same,IC50,[15],> 50 µg/mL
same,"IC50 (µg/ml), pseudovirus neutralization",[16],23 µg/mL
same,"IC50 (µg/ml), pseudovirus neutralization",[17],> 50 µg/mL
same,IC50,[18],> 50 µg/mL
same,IC50 (pseudovirus neutralization),[19],> 50 µg/mL
same,"IC50 (µg/ml), pseudovirus neutralization",[20],> 50 µg/mL
same,neutralization IC50,[20],> 50 µg/mL
same,neutralization IC90,[20],> 50 µg/mL
same,IC50,[21],0.06 µg/mL
same,neutralization IC50,[22],> 50 µg/mL
same,neutralization IC90,[22],> 50 µg/mL
same,"IC50 (µg/ml), pseudovirus neutralization",[23],> 50 µg/mL
same,IC50,[24],> 50 µg/mL
same,"IC50 (µg/ml), pseudovirus neutralization",[25],> 50 µg/mL
same,"IC50 (µg/ml), pseudovirus neutralization",[26],0.54 µg/mL
same,IC50,[27],> 50 µg/mL
same,IC50,[28],1.5 µg/mL
same,IC50,[29],> 50 µg/mL
same,"IC50 (µg/ml), pseudovirus neutralization",[30],> 50 µg/mL
same,IC50 (pseudovirus neutralization),[31],> 50 µg/mL
same,"IC50 (µg/ml), pseudovirus neutralization",[32],25.7 µg/mL
same,IC50,[33],> 50 µg/mL
same,IC50,[34],> 50 µg/mL
same,IC50,[35],2.93 µg/mL
same,"IC50 (µg/ml), pseudovirus neutralization",[37],> 50 µg/mL
same,IC50,[38],> 50 µg/mL
same,neutralization IC50,[39],> 50 µg/mL
same,neutralization IC90,[39],> 50 µg/mL
same,"IC50 (µg/ml), pseudovirus neutralization",[40],31 µg/mL
same,"IC50 (µg/ml), pseudovirus neutralization",[41],0.69 µg/mL
same,IC50 (pseudovirus neutralization),[42],1.81 µg/mL
same,IC50,[43],> 50 µg/mL
same,"IC50 (µg/ml), pseudovirus neutralization",[44],> 50 µg/mL
same,neutralization IC50,[45],> 50 µg/mL
same,neutralization IC90,[45],> 50 µg/mL
same,IC50,[46],0.8 µg/mL
same,"IC50 (µg/ml), pseudovirus neutralization",[47],> 50 µg/mL
same,neutralization IC50,[47],> 50 µg/mL
same,neutralization IC90,[47],> 50 µg/mL
same,IC50,[48],0.29 µg/mL
same,"IC50 (µg/ml), pseudovirus neutralization",[49],> 50 µg/mL
same,neutralization IC50,[50],> 50 µg/mL
same,neutralization IC90,[50],> 50 µg/mL
same,"IC50 (µg/ml), pseudovirus neutralization",[51],3.92 µg/mL
